Assay results from PMC5427286, “Structural model of dodecameric heat-shock protein Hsp21: Flexible N-terminal arms interact with client proteins while C-terminal tails maintain the dodecamer and chaperone activity” (The Journal of Biological Chemistry, 2017).

Legend:
[1] = molecular target: the molecule itself; test: cross-linking; BS3 at protein/cross-linker ratios of 1:10 and 1:60, protein 25-250 uM, read by denaturing SDS-PAGE
[2] = molecular target: the molecule itself; test: SAXS; batch SAXS at 2.5, 5 and 10 mg/ml; ensemble optimization method (EOM) with pools of dimers, hexamers and dodecamers

B1: Hsp21, the 21-kDa chloroplast-localized small heat-shock protein of Arabidopsis thaliana (natural protein)
chain: not shown
notes: N-terminal peptide printed as 1MQDQR5, IXVXI motif 179IDVQI183, rigid bodies of residues 83-184. numbers count on: the mature protein; Dodecamer of two trimer-of-dimer discs; The deposited model lacks part of the NTR; also called Hsp21 WT; Hsp21WT; source: E. coli ER2566, purified (ammonium sulfate precipitation, SEC); copies: 12
Question: B1 was tested. Which “stoichiometry N” value [1] did it give?
Answer: 12

Question: What about the “stoichiometry N” value [2] of the same protein?
Answer: 6
